The text below walks through data of article PMC3905715 (Nature Communications, 2013).

Positions count from the first letter of the chain named. Numbers in names are those of the source.

First the molecules themselves.
B1: mouse Rspo2 Fu1–Fu2 (mRspo2Fu1–Fu2, N37 or I39-G144), His10 (domain or fragment)
chain: NPICKGCLSCSKDNGCSRCQQKLFFFLRREGMRQYGECLHSCPSGYYGHRAPDMNRCARCRIENCDSCFSKDFCTKCKVGFYLHRGRCFDECPDGFAPLDETMECVEG
B2: mouse Rspo2 Fu1–Fu2 (mRspo2Fu1–Fu2, N37 or I39-G144), His10 (domain or fragment)
chain: B1 chain
modifications: biotin at C-terminal BirA tag, immobilised; disulphide
B3: mouse Rspo4 Fu1–Fu2 (T29-Q136) (domain or fragment, UniProt Q8BJ73 29-136, looked up)
chain: TGLGGNCTGCVICSEENGCSTCQQRLFLFIRREGIRQYGKCVHDCPLGFFGIRGQEANRCKKCGATCESCFSQDFCIRCKRRFHLYKGKCLPSCPPGTLTHQSTRECQ
modifications: biotin at the C-terminal BirA recognition sequence (as immobilised ligand in Figure 4b)
notes: R-spondin 4, mouse, Fu1-Fu2, residues T29-Q136; also called mRspo4; mRspo4Fu1–Fu2
B4: mouse ZNRF3 ectodomain (K53-L205), biotinylated, immobilised for SPR, Q5SSZ7 E92N; E94T (protein)
chain: KETAFVEVVLFESSPSGDYTTHTTGLTGRFSRAGAMLSANGTIVQMHPLGLCNNNDEEDLYEYGWVGVVKLEQPELDPKPCLTVLGKAKRAVQRGATAVIFDVSENPEAIDQLNQGSEDPLKRPVVYVKGADAIKLMNIVNKQKVARARIQHL
B5: mouse ZNRF3 ectodomain (K53-L205), biotinylated, immobilised for SPR, Q5SSZ7 S90C (protein)
chain: B4 chain with S38C, N40E, T42E
B6: mouse ZNRF3 ectodomain (mZNRF3ecto, K53-L205) (domain or fragment, UniProt Q5SSZ7 53-205, looked up)
chain: B4 chain with N40E, T42E
notes: ZNRF3 ectodomain, mouse, residues K53-L205; pHLsec vector; used for crystals, ultracentrifugation and as SPR analyte; also called wt mZNRF3_(ecto); source: HEK293T, secreted, purified (HisTrap, gel filtration)
B7: mZNRF3ecto S90C (spontaneously disulphide cross-linked dimer) (domain or fragment, mouse, UniProt Q5SSZ7 53-205, looked up)
chain: B4 chain with S38C, N40E, T42E
notes: ZNRF3 ectodomain, mouse; limits K53-L205 as stated for mZNRF3ecto; probably as m1; also called S90C variant of mZNRF3_(ecto); predimerized mZNRF3_(ecto) S90C
B8: human RNF43 ectodomain (hRNF43ecto, Q44-L188), biotinylated, immobilised for SPR, Q68DV7 K108N (protein)
chain: QKAIIRVIPLKMDPTGKLNLTLEGVFAGVAEITPAEGKLMQSHPLYLCNASDDDNLEPGFISIVNLESPRRAPRPCLSLASKARMAGERGASAVLFDITEDRAAAEQLQQPLGLTWPVVLIWGNDAEKLMEFVYKNQKAHVRIEL
B9: human RNF43 ectodomain (hRNF43ecto, Q44-L188), biotinylated, immobilised for SPR, Q68DV7 L82S (protein)
chain: B8 chain with L39S, N65K
B10: human Rspo1 Fu1–Fu2 (I32-S143), immobilised for SPR (domain or fragment, UniProt Q2MKA7 32-143, looked up)
chain: ISAEGSQACAKGCELCSEVNGCLKCSPKLFILLERNDIRQVGVCLPSCPPGYFDARNPDMNKCIKCKIEHCEACFSHNFCTKCKEGLYLHKGRCYPACPEGSSAANGTMECS
modifications: biotin at the C-terminal BirA recognition sequence
notes: R-spondin 1, human, Fu1-Fu2, residues I32-S143; also called hRspo1
B11: human Rspo3 Fu1–Fu2 (R32-H147), immobilised for SPR (domain or fragment, UniProt Q9BXY4 32-147, looked up)
chain: RMHPNVSQGCQGGCATCSDYNGCLSCKPRLFFALERIGMKQIGVCLSSCPSGYYGTRYPDINKCTKCKADCDTCFNKNFCTKCKSGFYLHLGKCLDNCPEGLEANNHTMECVSIVH
modifications: biotin at the C-terminal BirA recognition sequence
notes: R-spondin 3, human, Fu1-Fu2, residues R32-H147; also called hRspo3
B12: mR42 (protein)
chain: TGLGGNCTGCVICSEENGCSTCQQRLFLFIRREGIRQYGKCVHDCPLGFFGIRGQEANRCKKCRIENCDSCFSKDFCTKCKVGFYLHRGRCFDECPDGFAPLDETMECVEG
modifications: Chimera read from its name as Rspo4 Fu1 + Rspo2 Fu2. Junction not printed: set by convention after the residue aligned with Rspo2 R95. Disulphides

The target in series [1] is Rspo Fu1–Fu2 chimera: Fu1 of Rspo4 with Fu2 of a 'strong' Rspo (mouse | not stated). Nature of the series: SPR; binding of Rspo Fu1–Fu2 chimeras to ZNRF3ecto.
The target in series [2] is T1, human LGR5 ectodomain (hLGR5ecto, R32-G557), immobilised for SPR (human, UniProt O75473 32-557).
T1 chain: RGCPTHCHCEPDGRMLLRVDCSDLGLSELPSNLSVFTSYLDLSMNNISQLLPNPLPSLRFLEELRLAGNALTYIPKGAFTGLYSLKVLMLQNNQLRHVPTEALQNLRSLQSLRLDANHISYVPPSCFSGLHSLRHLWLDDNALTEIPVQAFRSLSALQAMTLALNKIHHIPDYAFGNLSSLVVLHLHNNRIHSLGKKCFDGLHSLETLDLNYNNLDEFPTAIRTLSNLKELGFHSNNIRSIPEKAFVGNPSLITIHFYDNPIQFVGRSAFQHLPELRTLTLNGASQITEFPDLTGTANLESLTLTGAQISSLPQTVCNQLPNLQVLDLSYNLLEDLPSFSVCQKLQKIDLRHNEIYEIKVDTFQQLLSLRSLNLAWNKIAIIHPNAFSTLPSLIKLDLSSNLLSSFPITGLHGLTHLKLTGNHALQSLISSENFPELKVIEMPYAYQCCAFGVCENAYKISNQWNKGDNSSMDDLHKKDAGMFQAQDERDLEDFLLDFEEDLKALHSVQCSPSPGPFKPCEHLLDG
Description: SPR. Background: In SPR one partner is held on a chip, and binding of the other changes the refractive index at the surface.

The target of the next series is T2, mZNRF3ecto M98T (Mus musculus).
T2 chain: B4 chain with N40E, T42E, M46T
Nature of the series: SPR.

Series [3] addresses T3, human LGR5 ectodomain (hLGR5ecto, R32-G557), immobilised for SPR (human, UniProt O75473 32-557).
T3 construct: LGR5 ectodomain, human, residues R32-G557; the methods describe biotinylated variants on streptavidin
T3 sequence (looked up): T1 chain
Description: SPR; binding of Rspo Fu1–Fu2 proteins and chimeras to hLGR5ecto; single dilution series. The settings on record: both partners purified.

Series [4] addresses B6. Nature of the series: SPR; mZNRF3ecto as analyte, biotinylated Rspo variants immobilised on streptavidin; equilibrium, 25 °C, 10 mM HEPES/NaOH pH 7.5, 150 mM NaCl, 0.005% Tween20; Biacore T200. The note with it: both partners purified.
In series [5] the target is T4, preformed hLGR5ecto,lr × mRspo2 Fu1–Fu2 complex, O75473.
T4 chain 1: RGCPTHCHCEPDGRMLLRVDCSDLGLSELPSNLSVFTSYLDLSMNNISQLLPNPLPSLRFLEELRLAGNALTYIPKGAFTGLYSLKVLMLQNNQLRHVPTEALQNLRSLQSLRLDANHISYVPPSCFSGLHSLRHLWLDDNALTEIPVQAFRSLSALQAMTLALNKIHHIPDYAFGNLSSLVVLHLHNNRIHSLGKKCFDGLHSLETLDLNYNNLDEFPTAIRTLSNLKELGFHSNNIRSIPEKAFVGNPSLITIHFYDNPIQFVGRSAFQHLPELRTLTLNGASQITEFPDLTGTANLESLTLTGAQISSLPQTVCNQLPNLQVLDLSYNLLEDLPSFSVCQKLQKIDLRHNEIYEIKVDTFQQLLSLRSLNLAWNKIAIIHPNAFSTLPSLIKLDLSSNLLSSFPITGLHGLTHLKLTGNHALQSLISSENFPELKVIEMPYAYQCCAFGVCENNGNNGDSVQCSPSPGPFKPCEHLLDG
T4 chain 2: B1 chain
Description: SPR. The note with it: chain shown with the change.

Series [6] deals with T3, human LGR5 ectodomain (hLGR5ecto, …). Description: SPR; hLGR5ecto (R32-G557) immobilised; injections of 10 μM solutions step by step, and saturation with the preformed mZNRF3ecto × mRSPO2 complex (single dilution series). The note with it: both partners purified.
The target in the next series is T5, hRSPO1 (Homo sapiens (Human), UniProt Q2MKA7).
T5 chain: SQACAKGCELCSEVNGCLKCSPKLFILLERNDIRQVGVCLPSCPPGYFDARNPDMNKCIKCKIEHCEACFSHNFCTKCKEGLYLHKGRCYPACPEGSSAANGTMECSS
Description: SPR equilibrium, RSPO Fu1-Fu2 immobilised.

In the next series the target is T6, hRSPO3 (Homo sapiens (Human), UniProt Q9BXY4).
T6 chain: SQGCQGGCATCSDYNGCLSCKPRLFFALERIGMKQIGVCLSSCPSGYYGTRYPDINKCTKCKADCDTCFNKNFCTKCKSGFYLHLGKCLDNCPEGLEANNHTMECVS
Nature of the series: SPR equilibrium, RSPO Fu1-Fu2 immobilised.

Series [7] concerns the molecule itself. Description: crystal structure; X-ray, sitting drop vapour diffusion; apo proteins and complexes in several crystal forms.
The target in series [8] is T7, mouse Rspo2 Fu1–Fu2 (mRspo2Fu1–Fu2, N37 or I39-G144), His10.
T7 chain: B1 chain
Nature of the series: SPR. The note with it: chain shown with the change.

Consider “mouse ZNRF3 ectodomain (mZNRF3ecto, K53-L205) (from UniProt Q5SSZ7 53-205) (domain or fragment)”, for which the Kd in [1] came to 3.6 µM.

Consider B1, for which the Kd in series [2] was found to be 14 nM.

For the molecule B2, the Kd in the series with mZNRF3ecto M98T amounted to 1500 nM.

With B3, the Kd in series [2] came out at 73 nM; in series [4] it was 300 µM. Further, in [3], the binding result is on record as “binds”.

As for B4, the Kd in series [5] is 3500 nM.

B5 yielded an equilibrium dissociation constant (Kd) in series [5] of 206 nM.

For the molecule B6, the binding result in [6] was “binds”. The Kd with hRSPO1 amounted to 6.8 µM; in the series with hRSPO3, 60 nM.

As to B7, the binding result in series [7] is given as “binds”.

Molecule B8 came in with a Kd in series [8] of 62 nM. In other words, the double-digit nanomolar range.

B9 returned a dissociation constant Kd in series [8] of 78 nM.

Take B10: in [4], the binding result was “binds”.

On to B11, for which the binding result in series [4] is reported as “binds”.

In [2], B12 yielded a Kd of 240 nM.

In general, Kd refers to a measure of binding affinity in units of concentration. Low readings indicate tighter binding, high ones weaker binding.
